Where two headings read alike, the source gives them in different places.
Tests used:
unnamed [1] = assay: affinities annotated in the ELM database (various methods, AffinityMin); settings: cited from earlier work
[2] = target: FLAG-GFP-SLiM with the predicted DDVF-like motif of PTPN3; assay: BioID2 proximity labeling (streptavidin immunoblot quantification); settings: n = 3; FLAG-GFP-SLiM +TEDVFY (PTPN3); parent: est. 1.6; read off a plot
[3] = target: FLAG-GFP-SLiM DDSVFS (FGFR2); assay: as above; settings: n = 3, FLAG-GFP-SLiM +DDSVFS (FGFR2)
[4] = target: FLAG-GFP-SLiM with the predicted DDVF motif of GTSE1; assay: as above; settings: n = 3, FLAG-GFP-SLiM +DDEVFF (GTSE1)
[5] = target: FLAG-GFP-SLiM with the predicted DDVF-like motif of TRM9B; assay: as above; settings: n = 3; FLAG-GFP-SLiM +DEEVFV (TRM9B); parent: est. 1.2; read off a plot
[6] = target: FLAG-GFP-SLiM DDSVFA (FGFR3); assay: as above; settings: n = 3, FLAG-GFP-SLiM +DDSVFA (FGFR3)
[7] = target: FLAG-GFP-SLiM EDSVFS (FGFR1); assay: as above; settings: n = 3, FLAG-GFP-SLiM +EDSVFS (FGFR1)
[8] = target: FLAG-GFP-SLiM with the predicted DDVF-like motif of TMEM139; assay: as above; settings: n = 3; FLAG-GFP-SLiM +DDSVFY (TMEM139); parent: est. 2.4; read off a plot
unnamed [9] = settings: cited from earlier work
Target sequence in this assay (P12004 127-254): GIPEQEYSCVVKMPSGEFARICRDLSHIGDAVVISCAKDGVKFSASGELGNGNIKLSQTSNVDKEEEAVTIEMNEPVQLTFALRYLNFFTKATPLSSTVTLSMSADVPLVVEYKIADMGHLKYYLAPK

unnamed [10] = settings: cited from earlier work; remark: listed apart in the source

Q13137, sequence (Q13137 whole entry, looked up): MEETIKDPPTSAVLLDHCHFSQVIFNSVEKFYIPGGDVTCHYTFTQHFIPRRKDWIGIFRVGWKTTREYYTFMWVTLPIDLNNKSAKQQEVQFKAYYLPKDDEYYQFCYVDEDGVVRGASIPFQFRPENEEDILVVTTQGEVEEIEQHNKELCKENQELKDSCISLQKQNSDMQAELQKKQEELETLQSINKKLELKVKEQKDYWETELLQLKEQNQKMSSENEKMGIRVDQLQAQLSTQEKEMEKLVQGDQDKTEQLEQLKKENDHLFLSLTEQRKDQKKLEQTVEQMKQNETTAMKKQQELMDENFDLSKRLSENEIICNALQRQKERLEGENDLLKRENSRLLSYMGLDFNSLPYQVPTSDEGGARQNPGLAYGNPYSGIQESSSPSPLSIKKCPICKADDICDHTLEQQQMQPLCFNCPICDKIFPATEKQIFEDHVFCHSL
P14784, sequence (P14784 whole entry, looked up): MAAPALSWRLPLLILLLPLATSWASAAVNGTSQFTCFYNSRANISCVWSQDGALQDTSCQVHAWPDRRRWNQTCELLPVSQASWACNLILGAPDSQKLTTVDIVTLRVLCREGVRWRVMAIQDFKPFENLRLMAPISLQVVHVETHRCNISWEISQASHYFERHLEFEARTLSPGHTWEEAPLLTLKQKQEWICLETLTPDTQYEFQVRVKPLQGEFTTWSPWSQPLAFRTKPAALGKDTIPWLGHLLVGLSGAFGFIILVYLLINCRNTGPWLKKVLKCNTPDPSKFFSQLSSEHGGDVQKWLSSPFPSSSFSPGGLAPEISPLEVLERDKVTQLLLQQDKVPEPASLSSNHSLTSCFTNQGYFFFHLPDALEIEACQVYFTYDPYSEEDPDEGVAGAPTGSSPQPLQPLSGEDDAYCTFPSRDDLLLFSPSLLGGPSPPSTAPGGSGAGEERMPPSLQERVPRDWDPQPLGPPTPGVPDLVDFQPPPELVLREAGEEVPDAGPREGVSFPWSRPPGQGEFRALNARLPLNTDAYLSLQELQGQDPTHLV
Q15004, sequence (Q15004 whole entry, looked up): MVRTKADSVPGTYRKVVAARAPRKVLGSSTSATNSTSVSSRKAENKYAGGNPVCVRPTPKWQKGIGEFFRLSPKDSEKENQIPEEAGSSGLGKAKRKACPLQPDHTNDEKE
P10451, sequence (P10451 whole entry, looked up): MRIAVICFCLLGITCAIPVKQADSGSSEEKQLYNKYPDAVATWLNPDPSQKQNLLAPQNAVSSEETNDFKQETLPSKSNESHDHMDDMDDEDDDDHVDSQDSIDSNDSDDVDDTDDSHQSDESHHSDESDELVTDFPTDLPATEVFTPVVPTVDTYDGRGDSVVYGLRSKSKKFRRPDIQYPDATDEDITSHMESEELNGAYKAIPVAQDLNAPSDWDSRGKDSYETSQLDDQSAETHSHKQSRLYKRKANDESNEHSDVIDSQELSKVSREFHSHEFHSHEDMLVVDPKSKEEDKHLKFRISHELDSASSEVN
P17535, sequence (P17535 whole entry, looked up): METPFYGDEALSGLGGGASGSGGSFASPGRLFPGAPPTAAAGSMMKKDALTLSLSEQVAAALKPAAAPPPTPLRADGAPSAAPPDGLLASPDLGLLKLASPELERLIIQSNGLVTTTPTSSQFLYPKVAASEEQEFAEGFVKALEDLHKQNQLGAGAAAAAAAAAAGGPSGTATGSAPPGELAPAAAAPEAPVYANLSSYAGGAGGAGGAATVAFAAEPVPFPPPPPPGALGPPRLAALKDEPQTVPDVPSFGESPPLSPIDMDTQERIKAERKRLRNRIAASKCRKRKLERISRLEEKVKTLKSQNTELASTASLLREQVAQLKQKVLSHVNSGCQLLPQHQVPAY
P01042, sequence (P01042 whole entry, looked up): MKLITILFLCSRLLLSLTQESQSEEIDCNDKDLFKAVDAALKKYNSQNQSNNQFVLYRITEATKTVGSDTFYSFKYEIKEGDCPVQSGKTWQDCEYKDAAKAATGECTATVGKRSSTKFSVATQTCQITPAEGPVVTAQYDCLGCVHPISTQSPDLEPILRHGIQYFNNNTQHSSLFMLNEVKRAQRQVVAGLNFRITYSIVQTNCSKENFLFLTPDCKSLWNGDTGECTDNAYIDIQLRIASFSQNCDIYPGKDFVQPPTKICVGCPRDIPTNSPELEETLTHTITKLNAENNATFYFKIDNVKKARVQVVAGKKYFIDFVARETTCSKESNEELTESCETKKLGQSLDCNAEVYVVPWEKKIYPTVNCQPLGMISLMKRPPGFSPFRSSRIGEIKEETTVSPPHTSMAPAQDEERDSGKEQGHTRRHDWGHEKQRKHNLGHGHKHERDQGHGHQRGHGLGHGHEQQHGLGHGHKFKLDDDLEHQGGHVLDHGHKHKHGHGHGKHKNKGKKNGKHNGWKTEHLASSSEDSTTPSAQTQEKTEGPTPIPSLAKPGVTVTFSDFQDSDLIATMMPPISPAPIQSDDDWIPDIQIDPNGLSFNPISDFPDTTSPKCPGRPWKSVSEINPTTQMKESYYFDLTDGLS
Q9H0W5, sequence (Q9H0W5 whole entry, looked up): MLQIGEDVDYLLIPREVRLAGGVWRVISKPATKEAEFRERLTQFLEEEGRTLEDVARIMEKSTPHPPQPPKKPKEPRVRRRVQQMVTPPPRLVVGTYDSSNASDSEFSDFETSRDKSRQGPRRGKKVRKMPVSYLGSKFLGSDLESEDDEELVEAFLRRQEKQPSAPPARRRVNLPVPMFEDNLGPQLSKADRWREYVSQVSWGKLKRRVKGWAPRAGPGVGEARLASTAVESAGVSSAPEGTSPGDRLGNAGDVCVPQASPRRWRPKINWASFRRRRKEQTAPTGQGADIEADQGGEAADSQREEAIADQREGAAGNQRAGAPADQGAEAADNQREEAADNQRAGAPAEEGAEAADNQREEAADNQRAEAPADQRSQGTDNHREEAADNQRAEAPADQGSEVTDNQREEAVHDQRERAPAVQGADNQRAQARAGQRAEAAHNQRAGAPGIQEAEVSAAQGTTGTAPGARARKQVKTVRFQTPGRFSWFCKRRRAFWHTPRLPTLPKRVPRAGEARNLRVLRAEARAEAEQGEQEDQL
P30279, sequence (P30279 whole entry, looked up): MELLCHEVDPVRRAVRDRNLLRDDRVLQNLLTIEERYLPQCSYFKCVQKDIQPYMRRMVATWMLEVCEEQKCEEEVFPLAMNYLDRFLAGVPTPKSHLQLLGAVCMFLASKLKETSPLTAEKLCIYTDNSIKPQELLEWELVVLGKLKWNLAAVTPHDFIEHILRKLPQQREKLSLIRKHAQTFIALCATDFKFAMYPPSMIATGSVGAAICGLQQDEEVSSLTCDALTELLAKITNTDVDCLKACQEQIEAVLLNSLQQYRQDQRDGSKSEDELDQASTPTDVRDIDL
Q9Y698, sequence (Q9Y698 whole entry, looked up): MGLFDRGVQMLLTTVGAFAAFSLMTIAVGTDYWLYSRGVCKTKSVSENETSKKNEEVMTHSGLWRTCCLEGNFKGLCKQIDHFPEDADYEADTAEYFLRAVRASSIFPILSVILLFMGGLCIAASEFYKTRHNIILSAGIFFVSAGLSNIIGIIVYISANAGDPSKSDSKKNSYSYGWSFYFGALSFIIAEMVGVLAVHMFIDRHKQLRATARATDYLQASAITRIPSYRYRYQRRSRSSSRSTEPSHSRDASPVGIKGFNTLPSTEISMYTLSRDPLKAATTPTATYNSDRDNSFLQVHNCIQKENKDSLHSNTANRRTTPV
Q99816, sequence (Q99816 whole entry, looked up): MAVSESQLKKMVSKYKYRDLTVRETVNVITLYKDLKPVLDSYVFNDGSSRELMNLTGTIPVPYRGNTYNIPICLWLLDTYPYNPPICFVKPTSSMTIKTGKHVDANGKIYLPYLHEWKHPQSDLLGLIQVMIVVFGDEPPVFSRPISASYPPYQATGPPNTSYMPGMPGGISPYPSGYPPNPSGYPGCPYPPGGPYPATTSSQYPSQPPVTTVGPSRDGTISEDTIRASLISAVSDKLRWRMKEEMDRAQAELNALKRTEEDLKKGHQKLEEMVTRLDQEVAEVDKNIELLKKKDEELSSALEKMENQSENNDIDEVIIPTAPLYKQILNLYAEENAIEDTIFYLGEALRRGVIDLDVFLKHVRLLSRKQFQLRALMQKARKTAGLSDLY
P46108, sequence (P46108 whole entry, looked up): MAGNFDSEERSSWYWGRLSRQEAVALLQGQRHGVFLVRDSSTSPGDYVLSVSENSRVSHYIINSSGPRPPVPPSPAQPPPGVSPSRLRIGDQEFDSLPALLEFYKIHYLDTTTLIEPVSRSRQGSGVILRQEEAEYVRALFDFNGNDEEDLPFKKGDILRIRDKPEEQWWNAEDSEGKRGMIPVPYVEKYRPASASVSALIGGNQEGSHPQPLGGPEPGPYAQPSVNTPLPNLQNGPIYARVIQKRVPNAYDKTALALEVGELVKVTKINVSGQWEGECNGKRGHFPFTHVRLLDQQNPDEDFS
Q6NS38, sequence (Q6NS38 whole entry, looked up): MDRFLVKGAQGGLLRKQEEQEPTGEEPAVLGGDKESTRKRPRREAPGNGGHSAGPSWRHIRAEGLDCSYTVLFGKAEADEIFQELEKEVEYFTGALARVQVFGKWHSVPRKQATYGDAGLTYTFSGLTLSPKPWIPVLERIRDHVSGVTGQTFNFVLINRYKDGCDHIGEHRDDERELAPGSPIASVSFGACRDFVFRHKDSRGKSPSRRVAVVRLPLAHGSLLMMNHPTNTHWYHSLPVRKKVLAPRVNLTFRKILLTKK
Q8WUK0, sequence (Q8WUK0 whole entry, looked up): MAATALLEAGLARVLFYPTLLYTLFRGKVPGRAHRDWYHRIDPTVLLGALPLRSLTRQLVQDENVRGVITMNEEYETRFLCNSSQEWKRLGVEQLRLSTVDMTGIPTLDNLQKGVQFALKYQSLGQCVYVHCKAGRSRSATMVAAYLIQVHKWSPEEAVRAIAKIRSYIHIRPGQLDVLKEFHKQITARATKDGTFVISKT

Substance | Kd (unnamed [1]) [nM] | other results
Q8WUK0 (from UniProt Q8WUK0) | 530 | 
Q9H9L4 (from UniProt Q9H9L4) | 8600 | 
P01137 (from UniProt P01137) | 7.2 | 
P14784 (from UniProt P14784) | 750 | 
Q52LA3 (from UniProt Q52LA3) | 1400 | 
Q8NHG7 (from UniProt Q8NHG7) | 5880 | 
Q8TEB9 (from UniProt Q8TEB9) | 66500 | 
Q15054 (from UniProt Q15054) | 1700 | 
P49137 (from UniProt P49137) | 50 | 
HA-RSK(WT)-BioID2 (wild-type human RSK2, ribosomal protein S6 kinase A3, fused to BioID2) (from UniProt P51812) KAKLGM-to-KSEPPY |  | response (normalized biotin/FLAG) [2]: 1.1; ratio to parent ([3]; marked *): 3.8 fold; response (normalized biotin/FLAG) ([3]; parent: est. 1.3, read off a plot): 0.45; ratio to parent ([4]; marked *): 2.3 fold; response (normalized biotin/FLAG) ([4]; parent: est. 0.85, read off a plot): 0.38; response (normalized biotin/FLAG) [5]: 0.85; ratio to parent ([6]; marked *): 2.4 fold; response (normalized biotin/FLAG) ([6]; parent: est. 1.0, read off a plot): 0.43; ratio to parent ([7]; marked *): 2.4 fold; response (normalized biotin/FLAG) ([7]; parent: est. 1.4, read off a plot): 0.6; response (normalized biotin/FLAG) [8]: 0.4
Q86VZ6 (from UniProt Q86VZ6) | 8900 | 
Q15004 (from UniProt Q15004) |  | Kd (unnamed [9]): 1000 nM
P17535 (from UniProt P17535) | 73000 | 
Q01094 (from UniProt Q01094) | 1060 | 
O75367 (from UniProt O75367) | 63600 | 
Q92844 (from UniProt Q92844) | 14000 | 
Q96ST2 (from UniProt Q96ST2) | 4700 | 

Substance | Kd (unnamed [1]) [nM] | other results
P10451 (from UniProt P10451) | 0.43 | 
Q6NS38 (from UniProt Q6NS38) | 240 | 
P46108 (from UniProt P46108) | 10200 | 
Q9NZM5 (from UniProt Q9NZM5) | 23300 | 
P30279 (from UniProt P30279) | 2500 | 
Q96AE4 (from UniProt Q96AE4) | 6000 | 
Q13137 (from UniProt Q13137) |  | Kd (unnamed [10]): 1600 nM
Q9UNA4 (from UniProt Q9UNA4) | 300 | 
Q9UQ84 (from UniProt Q9UQ84) | 16500 | 
O95630 (from UniProt O95630) | 473 | 
P61081 (from UniProt P61081) | 1800 | 
Q9Y698 (from UniProt Q9Y698) | 32500 | 
Q99816 (from UniProt Q99816) | 1000 | 
P01042 (from UniProt P01042) | 110000 | 
Q13309 (from UniProt Q13309) | 3200 | 
Q9H0W5 (from UniProt Q9H0W5) | 180 | 
P06400 (from UniProt P06400) | 3900 | 
